Reference: publication PMC10442425

Target: recombinant SARS-CoV-2 envelope (E) protein, His-tagged (SARS-CoV-2) (UniProt P0DTC4)
Assay: SPR; Biacore 8K, 25 °C, PBS-P buffer; His-tagged E protein captured on NTA chip; recombinant human CD36 injected at 400 nM to 12.5 nM, parallel kinetics; 1:1 binding model

Substance “recombinant human CD36 protein (from UniProt P16671 1-472) (receptor)” has a Kd of 55 nM.
